The results in this text go back to PMC4422613, “The Inner Nuclear Membrane Protein Nemp1 Is a New Type of RanGTP-Binding Protein in Eukaryotes” (PLoS ONE, 2015).

Test [1] concerns the target recombinant Myc-Mm_RanQ69L(GTP) (Mus musculus, UniProt P62827 1-216, Q69L). Description: pull-down; purified GST-Mm_Bt (2.8 μg) on glutathione-Sepharose beads incubated with purified Myc-RanQ69L (5 μg) loaded with 2 mM GTP, binding buffer, 4 °C, 2 h. To be noted: both partners purified.
The next test concerns the target GST-Mm_RanQ69L (Mus musculus, UniProt P62827 1-216, Q69L). Description: pull-down; competition: 0.1, 1, 10 μg recombinant Mm_Bt added to 10 μg GST-RanQ69L on glutathione beads in embryo lysate holding FLAG-importin β; read-out is the importin β pulled down. Conditions: both partners purified.

B1: GST-Mm_Bt (domain or fragment)
chain: PVPPRLLTEEEYRIQGEVETQKALQELREFCNSPECSAWKTISRIQSPKRFADFVEGSFHLTPNEVSVHEQEYGLGSIFTQDEELSSEEEGSEYPTFTQNNFLT
For the molecule B1, the binding result in test [1] is reported as “binds”.

B2: recombinant Mm_Bt (domain or fragment)
chain: PVPPRLLTEEEYRIQGEVETQKALQELREFCNSPECSAWKTISRIQSPKRFADFVEGSFHLTPNEVSVHEQEYGLGSIFTQDEELSSEEEGSEYPTFTQNNFLT
notes: source: recombinant
On to B2, for which the binding result with GST-Mm_RanQ69L is on record as “binds”.
